# Data as given in patent US20160017022A1.
# Molecular target: EGFP-MAL stably expressed on CHO cells
# Experiment: FACS, CHO cells stably expressing EGFP-MAL
substance,measurement,value
fluorescently labeled ETX (ETX^Alexa-647) (from UniProt Q02307 33-328) (ligand),double labeling of EGFP-MAL expressing cells,100%
